# Experimental data taken from patent US7229788.
# Columns and labels:
# [1] = test system: SHEL (synthetic human elastin; recombinant human tropoelastin splice form)
# [2] = test system: serine protease site peptide (SPS-peptide), N-AAKAQLRAAAGLGA-C
# [3] = test system: SHELδ26A (SHEL lacking the sequence of exon 26A)
# [4] = test system: GST-SHEL (glutathione S-transferase fusion of SHEL)
# Chain of GST-SHEL (glutathione S-transferase fusion of SHEL) (chain, as listed by the source): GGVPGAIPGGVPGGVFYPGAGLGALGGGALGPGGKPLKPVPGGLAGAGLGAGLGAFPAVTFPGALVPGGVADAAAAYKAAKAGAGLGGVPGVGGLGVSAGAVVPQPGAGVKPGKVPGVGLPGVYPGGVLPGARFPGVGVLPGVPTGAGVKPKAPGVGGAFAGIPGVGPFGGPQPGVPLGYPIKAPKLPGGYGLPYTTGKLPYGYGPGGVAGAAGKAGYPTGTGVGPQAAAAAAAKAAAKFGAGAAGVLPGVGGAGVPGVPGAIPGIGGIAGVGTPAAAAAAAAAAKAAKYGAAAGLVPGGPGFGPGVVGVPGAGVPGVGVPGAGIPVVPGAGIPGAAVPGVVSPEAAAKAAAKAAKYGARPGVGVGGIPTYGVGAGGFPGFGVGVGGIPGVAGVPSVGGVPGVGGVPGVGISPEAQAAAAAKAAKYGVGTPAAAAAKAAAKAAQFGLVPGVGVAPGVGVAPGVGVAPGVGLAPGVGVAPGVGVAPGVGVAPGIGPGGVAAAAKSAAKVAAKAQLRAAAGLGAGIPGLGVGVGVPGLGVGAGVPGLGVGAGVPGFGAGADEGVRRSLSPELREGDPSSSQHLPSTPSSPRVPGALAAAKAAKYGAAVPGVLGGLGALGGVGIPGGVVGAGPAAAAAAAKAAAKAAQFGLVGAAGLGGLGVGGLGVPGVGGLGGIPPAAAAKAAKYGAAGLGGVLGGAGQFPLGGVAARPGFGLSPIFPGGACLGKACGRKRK
# Chain of human plasma kallikrein (Sigma) (chain, as listed by the source): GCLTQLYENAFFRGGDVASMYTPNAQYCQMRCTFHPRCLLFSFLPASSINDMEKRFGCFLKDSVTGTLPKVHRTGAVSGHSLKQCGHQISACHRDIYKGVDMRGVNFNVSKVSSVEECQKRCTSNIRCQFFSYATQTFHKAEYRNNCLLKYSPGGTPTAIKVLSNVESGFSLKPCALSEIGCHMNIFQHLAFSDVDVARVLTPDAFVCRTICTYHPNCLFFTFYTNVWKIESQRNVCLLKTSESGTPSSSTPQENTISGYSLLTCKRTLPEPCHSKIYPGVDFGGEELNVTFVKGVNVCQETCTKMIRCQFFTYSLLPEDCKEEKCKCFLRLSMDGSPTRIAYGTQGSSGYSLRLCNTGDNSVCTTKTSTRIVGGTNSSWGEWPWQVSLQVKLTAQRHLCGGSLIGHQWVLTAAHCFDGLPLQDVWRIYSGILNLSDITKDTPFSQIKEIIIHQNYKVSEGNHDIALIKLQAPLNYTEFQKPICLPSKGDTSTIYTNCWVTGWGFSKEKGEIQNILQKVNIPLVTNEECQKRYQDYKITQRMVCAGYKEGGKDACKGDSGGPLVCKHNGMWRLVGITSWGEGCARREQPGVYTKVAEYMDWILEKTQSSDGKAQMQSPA
# Chain of SHELδ26A (SHEL lacking the sequence of exon 26A) (chain, as listed by the source mutant): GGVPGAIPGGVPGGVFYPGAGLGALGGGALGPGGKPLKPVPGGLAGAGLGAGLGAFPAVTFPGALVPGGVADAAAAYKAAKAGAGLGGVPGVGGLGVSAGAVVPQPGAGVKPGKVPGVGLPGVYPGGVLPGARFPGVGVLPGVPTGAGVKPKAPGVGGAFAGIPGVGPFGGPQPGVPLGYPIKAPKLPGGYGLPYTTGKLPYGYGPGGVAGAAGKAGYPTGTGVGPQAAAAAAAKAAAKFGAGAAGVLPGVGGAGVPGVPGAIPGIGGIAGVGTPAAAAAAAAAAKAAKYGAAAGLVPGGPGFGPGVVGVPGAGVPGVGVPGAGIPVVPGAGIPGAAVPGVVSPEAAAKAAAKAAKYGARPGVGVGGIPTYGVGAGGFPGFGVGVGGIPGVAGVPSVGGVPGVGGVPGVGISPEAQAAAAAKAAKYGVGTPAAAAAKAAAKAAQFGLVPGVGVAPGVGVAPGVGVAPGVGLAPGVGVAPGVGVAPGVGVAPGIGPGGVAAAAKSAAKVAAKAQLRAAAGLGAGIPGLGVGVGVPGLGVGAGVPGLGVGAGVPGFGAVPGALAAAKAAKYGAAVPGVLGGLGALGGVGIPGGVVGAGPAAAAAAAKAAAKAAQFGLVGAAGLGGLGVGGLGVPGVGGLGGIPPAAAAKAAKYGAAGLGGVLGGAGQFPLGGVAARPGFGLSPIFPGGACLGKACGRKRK
# Chain of SHEL (synthetic human elastin; recombinant human tropoelastin splice form) (chain, as listed by the source): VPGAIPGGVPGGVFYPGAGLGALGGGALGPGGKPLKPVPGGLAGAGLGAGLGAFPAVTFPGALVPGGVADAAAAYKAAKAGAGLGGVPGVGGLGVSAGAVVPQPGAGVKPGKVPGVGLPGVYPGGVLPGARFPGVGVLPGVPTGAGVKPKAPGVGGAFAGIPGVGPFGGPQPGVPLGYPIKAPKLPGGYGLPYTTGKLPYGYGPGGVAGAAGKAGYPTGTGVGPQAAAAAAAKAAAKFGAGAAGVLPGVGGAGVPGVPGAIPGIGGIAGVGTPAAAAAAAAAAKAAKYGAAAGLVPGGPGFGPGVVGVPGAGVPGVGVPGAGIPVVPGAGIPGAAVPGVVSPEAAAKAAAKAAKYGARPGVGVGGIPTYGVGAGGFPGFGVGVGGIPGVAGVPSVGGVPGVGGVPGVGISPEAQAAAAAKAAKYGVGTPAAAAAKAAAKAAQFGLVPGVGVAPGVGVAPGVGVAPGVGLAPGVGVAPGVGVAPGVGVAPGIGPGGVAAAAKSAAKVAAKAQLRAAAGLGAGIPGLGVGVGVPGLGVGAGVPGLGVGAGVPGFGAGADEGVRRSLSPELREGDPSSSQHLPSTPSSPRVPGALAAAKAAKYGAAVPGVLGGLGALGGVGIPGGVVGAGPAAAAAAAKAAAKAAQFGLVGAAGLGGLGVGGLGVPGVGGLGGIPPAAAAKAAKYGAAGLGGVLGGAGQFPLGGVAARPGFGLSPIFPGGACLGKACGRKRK
Substance,"degradation of SHEL by human plasma kallikrein, SDS-PAGE [1]","amount of full-length SHEL after kallikrein digestion with a 100:1 molar excess of SPS-peptide, SDS-PAGE and densitometry (also seen with SHELδ26A, not shown) [2]","degradation of SHELδ26A by human plasma kallikrein, SDS-PAGE [3]","cleavage of GST-SHEL by thrombin, SDS-PAGE [4]","degradation of SHEL by thrombin, SDS-PAGE [1]","amount of full-length SHEL after thrombin digestion with SPS-peptide, SDS-PAGE and densitometry [2]","degradation of SHELδ26A by thrombin, SDS-PAGE [3]"
human plasma kallikrein (Sigma),"Three major fragments were identified by SDS-PAGE (FIG. 8) estimated to be 45, 22 and 18 kDa","more full-length SHEL was evident compared with controls using trypsin, plasmin, kallikrein and serum","The pattern of degradation of SHELδ26A was somewhat different, with the 22 and 18 kDa fragments missing and replaced by a 15 kDa fragment",,,,
human thrombin (Sigma),,,,Thrombin is able to cleave GST-SHEL extensively and in a reproducible manner,"four major fragments were identified by SDS-PAGE estimated at 45, 34, 22 and 13 kDa",SPS-peptide also resulted in more full-length SHEL using thrombin and HLE but to a lesser extent,The patterns of degradation seen with SHELδ26A was slightly different with the 22 kDa fragment reduced in size to about 15 kDa
